Experimental data: US20030162275A1, “Dog flavin-containing monooxygenase” (priority 2002, published 2003)
Changes are numbered by the printed parent chain.

B1: SEQ ID NO: 2: Amino acid sequence of a variant of dog wild-type FMO1 (protein, listed as Canis familiaris)
chain: MAKRVAIVGAGVSGLASIKCCLEEGLEPTCFERSDDLGGLWRFTEHVEGGRASLYKSVVSNSCKEMSCYSDFPFPEDYPNYVPNSQFLEYLKMYANRFSLLKCIRFKTKVCKVTKCPDFTVTGQWEVVTQHEGKQESAIFDAVMVCTGFLTNPHLPLDCFPGINTFKGQYFHSRQYKHPDIFKDKRVLVIGMGNSGTDIAVETSRLAKKVFLSTTGGAWVMSRVFDSGYPWDVVFMTRYQNMFRNSLSTPIVTWLMARKMNSWFNHANYGLVPEDRTQLREPVLNDELPGCIITGKVLIKPSIKEVKENSVVFNNTPKEEPIDIIVFATGYTFAFPFLDETVVKVENGQASLYKYIFPVHLPKPTLAVIGLIKPLGSMIPTGETQARWAVRVLKGINKLPPQSAMTEEVNARKENKPSGFGLCYCKALQSDYITYIDELLTNINAKPNLFSLPLTDPRLALTTFFGPCTPYQFRLTGPGKWKGARNAILTQWDRTFKVTKTRIVQESPTPFASLLKLLSLLALLMAIFQIFL
B2: SEQ ID NO: 4: Amino acid sequence of another variant of dog wild-type FMO1 (protein, listed as Canis familiaris)
chain: B1 chain with G49E, C159Y, F182L, V233M, Y239F, S248P, L422S, P453L, T463I
B3: SEQ ID NO: 6: Amino acid sequence of dog wild-type FMO1, expressed using a baculovirus expression system in insect cells (protein, listed as Canis familiaris)
chain: B1 chain with G49E, V233M, Y239F, S248P, P453L, T463I, Q529L

Assay: Enzyme activity assay (MPT S-oxidase activity of expressed FMO1 polypeptides in Sf-9 cell microsomes)
Assay type: biochemical, dog
Settings: 25 ug Sf-9 cell microsomal protein, 1 mM NADPH, 0.1 M tricine, 37° C., 10 minutes, HPLC detection of MPT sulfoxide at 240 nm
Method: Examples of particular variants of polypeptides of the invention include polypeptide of SEQ ID NO: 2 and SEQ ID NO: 4. […] This enzyme assay represents a single known method for the detemination of enzyme activity of various FMOs. Briefly, the methyl-p-tolyl (MPT) S-oxidase activity of the expressed variants of the polypeptide was assayed as a measure of FMO function. […] Incubations included 25 ug of Sf-9 cell (containing the polypeptide) microsomal protein 1 mM NADPH, and 0.1 M tricine. Incubations were started by the addition of MPTS and were conducted at 37° C. for at least 10 minutes. Following termination of the incubation, the supernatant was analyzed by high performance liquid chromatography and the MPT sulfoxide product was detected by absorbance at 240 nm and quantitated using an authentic standard of the sulfoxide metabolite.
An achiral assay method was conducted according to the data sheets provided by Gentest, with some modifications. Based on preliminary determinations of the linearity of metabolite formation with protein concentration and incubation time, incubation conditions were established using 50 μg (tissue microsomes) or 25 μg (Sf-9 cell microsomes) protein, 1 mM NADPH, and 0.1 M tricine in a total volume of 0.25 ml. Samples were incubated for 3 min at 37° C. followed by the addition of substrate (in 1% methanol) to start the reaction. Incubations were terminated after 10 minutes by the addition of 50 μl of acetonitrile, and samples were centrifuged to precipitate protein. The supernatant was analyzed by HPLC, using a 4.6 ×250 mm 5 micron C18 analytical column (Luna™C18(2), Phenomenex, Torrance Calif.) and a 1 ml/min gradient elution of 40:60/methanol:water to 60:40/methanol/water over 8 minutes, followed by substrate elution with 95% methanol. The MPT sulfoxide product was detected by absorbance at 240 nm and quantitated using the authentic standard. Imipramine N-oxidation was measured by substrate-dependent oxidation of NADPH at 340 nm Wyatt et al., 1998, using 25-50 μg of microsomal protein in a total volume of 750 μl.

Row | Molecule | enzyme activity (MPT S-oxidase activity as a measure of FMO function)
1 | B1 | inactive
2 | B2 | inactive
3 | B3 | active
